# Data published in patent CN110577603A (BEIJING DONGFANG BIOTECH CO LTD, dated 2019).
# T1: CD19 (on Raji lymphoma cells) (UniProt P15391 20-556, limits assumed)
# T1 sequence (looked up): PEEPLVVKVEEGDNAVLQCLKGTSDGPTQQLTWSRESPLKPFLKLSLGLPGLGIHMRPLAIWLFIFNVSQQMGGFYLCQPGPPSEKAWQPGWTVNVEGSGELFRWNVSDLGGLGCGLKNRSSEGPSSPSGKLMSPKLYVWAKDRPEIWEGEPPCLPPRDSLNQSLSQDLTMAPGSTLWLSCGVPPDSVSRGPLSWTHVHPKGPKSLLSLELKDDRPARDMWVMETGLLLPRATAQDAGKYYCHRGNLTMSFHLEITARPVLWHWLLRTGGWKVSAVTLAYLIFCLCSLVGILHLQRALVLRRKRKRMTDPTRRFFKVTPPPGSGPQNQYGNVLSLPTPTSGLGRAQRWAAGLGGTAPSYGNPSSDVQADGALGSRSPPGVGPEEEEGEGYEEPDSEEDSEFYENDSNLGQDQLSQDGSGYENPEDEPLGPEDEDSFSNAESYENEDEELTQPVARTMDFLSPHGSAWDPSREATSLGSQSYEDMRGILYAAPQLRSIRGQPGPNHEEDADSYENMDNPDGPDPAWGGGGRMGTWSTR
# B1: v5851双特异抗体 (专利CN105531374 A) (bispecific antibody)
# chain 1: not shown
# chain 2: not shown
# chain 3: DIVMTQSPATLSLSPGERATLSCRSSKSLQNVNGNTYLYWFQQKPGQSPQLLIYRMSNLNSGVPDRFSGSGSGTEFTLTISSLEPEDFAVYYCMQHLEYPITFGAGTKLEIKRTVAAPSVFIFPPSDEQLKSGTASVVCLLNNFYPREAKVQWKVDNALQSGNSQESVTEQDSKDSTYSLSSTLTLSKADYEKHKVYACEVTHQGLSSPVTKSFNRGEC
# B2: 抗CD3和抗CD19双特异性抗体 JY039 (bispecific antibody)
# chain (part 1 of 2): not shown
# chain (part 2 of 2): not shown
# heavy: QVQLQQSGAELVRPGSSVKISCKASGYAFSSYWMNWVKQRPGQGLEWIGQIWPGDGDTNYNGKFKGKATLTADESSSTAYMQLSSLASEDSAVYFCARRETTTVGRYYYAMDYWGQGTTVTVSS
# light: DIQLTQSPASLAVSLGQRATISCKASQSVDYDGDSYLNWYQQIPGQPPKLLIYDASNLVSGIPPRFSGSGSGTDFTLNIHPVEKVDAATYHCQQSTEDPWTFGGGTKLEIK
# notes: Three chains: anti-CD3 single-chain unit (full light chain - linker - full heavy chain), anti-CD19 heavy chain, anti-CD19 light chain; constant regions preferably IgG4, linker preferably (GGGGS)6; also called 双特异抗体JY039; not shown: linker (GGGGX)n, X = Gly or Ser, n = 1-6; preferred X = Ser and n = 6; IgG4 heavy chain constant region (preferred; light chain constant region of the anti-CD19 unit; …)
# B3: 抗CD19的单克隆抗体 (built from the anti-CD19 sequences of JY039) (antibody, V domains shown)
# VH: B2 heavy
# VL: B2 light
# notes: also called AntiCD19McAb; 抗CD19单克隆抗体
# Tests used:
# [1] = molecular target: T1, CD19 (on Raji lymphoma cells); assay: cell-based or functional assay
# [2] = molecular target: T1, CD19 (on Raji lymphoma cells); assay: flow cytometry on Raji cells (CD19 positive), Alexa488 anti-human IgG-Fc, MFI fitted
# CD3 (on Jurkat T cells) = molecular target: T2, CD3 (on Jurkat T cells) (UniProt P07766 23-207); assay: flow cytometry on Jurkat cells (CD3 positive), Alexa488 anti-human IgG-Fc, MFI fitted
# T2 construct: whole, on cells; Jurkat is a human cell line; also called CD3抗原; 细胞表面CD3
# T2 sequence (P07766 23-207): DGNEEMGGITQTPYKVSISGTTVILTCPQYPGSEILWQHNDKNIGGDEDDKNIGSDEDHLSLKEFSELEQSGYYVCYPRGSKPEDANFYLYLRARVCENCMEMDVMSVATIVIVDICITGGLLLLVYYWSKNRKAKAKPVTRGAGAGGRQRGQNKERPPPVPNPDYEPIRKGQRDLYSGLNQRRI
Binder,EC50 of PBMC-mediated killing of Raji cells (LDH release) [1] [pM],EC50 [2] [pM],EC50 (CD3 (on Jurkat T cells)) [pM]
B1,30,2490,59800
B2,1.26,1020,–
B3,222,191,–
